Positions of bridges follow the written chain, without caps; N, C: chain ends. Non-standard residues stand in square brackets, D forms with d. Trp(1-Me) = Cn1cc(C[C@H](N)C(=O)O)c2ccccc21; 1Nal = N[C@@H](Cc1cccc2ccccc12)C(=O)O; 2Nal = N[C@@H](Cc1ccc2ccccc2c1)C(=O)O; Sar = CNCC(=O)O
B1: Compound 49 (peptide)
peptide: Ac-EGSAICI[Trp(1-Me)]QDWGEHRC[Sar]E-NH2
modifications: disulfide 6-16
SMILES: CC[C@H](C)[C@H](NC(=O)[C@H](C)NC(=O)[C@H](CO)NC(=O)CNC(=O)[C@H](CCC(=O)O)NC(C)=O)C(=O)N[C@H]1CSSC[C@@H](C(=O)N(C)CC(=O)N[C@@H](CCC(=O)O)C(N)=O)NC(=O)[C@H](CCCNC(=N)N)NC(=O)[C@H](Cc2c[nH]cn2)NC(=O)[C@H](CCC(=O)O)NC(=O)CNC(=O)[C@H](Cc2c[nH]c3ccccc23)NC(=O)[C@H](CC(=O)O)NC(=O)[C@H](CCC(N)=O)NC(=O)[C@H](Cc2cn(C)c3ccccc23)NC(=O)[C@H]([C@@H](C)CC)NC1=O
B2: Compound 81 (peptide)
peptide: Ac-SE[Sar]CI[Trp(1-Me)]QDWGEHRC[Sar]EA-NH2
modifications: disulfide 4-14
SMILES: CC[C@H](C)[C@@H]1NC(=O)[C@@H](NC(=O)CN(C)C(=O)[C@H](CCC(=O)O)NC(=O)[C@H](CO)NC(C)=O)CSSC[C@@H](C(=O)N(C)CC(=O)N[C@@H](CCC(=O)O)C(=O)N[C@@H](C)C(N)=O)NC(=O)[C@H](CCCNC(=N)N)NC(=O)[C@H](Cc2c[nH]cn2)NC(=O)[C@H](CCC(=O)O)NC(=O)CNC(=O)[C@H](Cc2c[nH]c3ccccc23)NC(=O)[C@H](CC(=O)O)NC(=O)[C@H](CCC(N)=O)NC(=O)[C@H](Cc2cn(C)c3ccccc23)NC1=O
B3: Compound 86 (peptide)
peptide: Ac-SEFCI[Trp(1-Me)]QDWGEHKC[Sar]EA-NH2
modifications: disulfide 4-14
SMILES: CC[C@H](C)[C@@H]1NC(=O)[C@@H](NC(=O)[C@H](Cc2ccccc2)NC(=O)[C@H](CCC(=O)O)NC(=O)[C@H](CO)NC(C)=O)CSSC[C@@H](C(=O)N(C)CC(=O)N[C@@H](CCC(=O)O)C(=O)N[C@@H](C)C(N)=O)NC(=O)[C@H](CCCCN)NC(=O)[C@H](Cc2c[nH]cn2)NC(=O)[C@H](CCC(=O)O)NC(=O)CNC(=O)[C@H](Cc2c[nH]c3ccccc23)NC(=O)[C@H](CC(=O)O)NC(=O)[C@H](CCC(N)=O)NC(=O)[C@H](Cc2cn(C)c3ccccc23)NC1=O
B4: Compound 73 (peptide)
peptide: H-[dY]FCI[Trp(1-Me)]QDW[Sar]EHRCTGAES-NH2
modifications: disulfide 3-13
SMILES: CC[C@H](C)[C@@H]1NC(=O)[C@@H](NC(=O)[C@H](Cc2ccccc2)NC(=O)[C@H](N)Cc2ccc(O)cc2)CSSC[C@@H](C(=O)N[C@H](C(=O)NCC(=O)N[C@@H](C)C(=O)N[C@@H](CCC(=O)O)C(=O)N[C@@H](CO)C(N)=O)[C@@H](C)O)NC(=O)[C@H](CCCNC(=N)N)NC(=O)[C@H](Cc2c[nH]cn2)NC(=O)[C@H](CCC(=O)O)NC(=O)CN(C)C(=O)[C@H](Cc2c[nH]c3ccccc23)NC(=O)[C@H](CC(=O)O)NC(=O)[C@H](CCC(N)=O)NC(=O)[C@H](Cc2cn(C)c3ccccc23)NC1=O
B5: Compound 23 (peptide)
peptide: Ac-FCIWQDWGEHRCT-NH2
modifications: disulfide 2-12
SMILES: CC[C@H](C)[C@@H]1NC(=O)[C@@H](NC(=O)[C@H](Cc2ccccc2)NC(C)=O)CSSC[C@@H](C(=O)N[C@H](C(N)=O)[C@@H](C)O)NC(=O)[C@H](CCCNC(=N)N)NC(=O)[C@H](Cc2c[nH]cn2)NC(=O)[C@H](CCC(=O)O)NC(=O)CNC(=O)[C@H](Cc2c[nH]c3ccccc23)NC(=O)[C@H](CC(=O)O)NC(=O)[C@H](CCC(N)=O)NC(=O)[C@H](Cc2c[nH]c3ccccc23)NC1=O
B6: Compound 29 (peptide)
peptide: Ac-EGSAICIWQDWGEHRCT-NH2
modifications: disulfide 6-16
SMILES: CC[C@H](C)[C@H](NC(=O)[C@H](C)NC(=O)[C@H](CO)NC(=O)CNC(=O)[C@H](CCC(=O)O)NC(C)=O)C(=O)N[C@H]1CSSC[C@@H](C(=O)N[C@H](C(N)=O)[C@@H](C)O)NC(=O)[C@H](CCCNC(=N)N)NC(=O)[C@H](Cc2c[nH]cn2)NC(=O)[C@H](CCC(=O)O)NC(=O)CNC(=O)[C@H](Cc2c[nH]c3ccccc23)NC(=O)[C@H](CC(=O)O)NC(=O)[C@H](CCC(N)=O)NC(=O)[C@H](Cc2c[nH]c3ccccc23)NC(=O)[C@H]([C@@H](C)CC)NC1=O
B7: Compound 50 (peptide)
peptide: Ac-EGSAICI[2Nal]QDWGEHRC[Sar]E-NH2
modifications: disulfide 6-16
SMILES: CC[C@H](C)[C@H](NC(=O)[C@H](C)NC(=O)[C@H](CO)NC(=O)CNC(=O)[C@H](CCC(=O)O)NC(C)=O)C(=O)N[C@H]1CSSC[C@@H](C(=O)N(C)CC(=O)N[C@@H](CCC(=O)O)C(N)=O)NC(=O)[C@H](CCCNC(=N)N)NC(=O)[C@H](Cc2c[nH]cn2)NC(=O)[C@H](CCC(=O)O)NC(=O)CNC(=O)[C@H](Cc2c[nH]c3ccccc23)NC(=O)[C@H](CC(=O)O)NC(=O)[C@H](CCC(N)=O)NC(=O)[C@H](Cc2ccc3ccccc3c2)NC(=O)[C@H]([C@@H](C)CC)NC1=O
B8: Compound 85 (peptide)
peptide: Ac-EFCI[Trp(1-Me)]QDWGEHRCES-NH2
modifications: disulfide 3-13
SMILES: CC[C@H](C)[C@@H]1NC(=O)[C@@H](NC(=O)[C@H](Cc2ccccc2)NC(=O)[C@H](CCC(=O)O)NC(C)=O)CSSC[C@@H](C(=O)N[C@@H](CCC(=O)O)C(=O)N[C@@H](CO)C(N)=O)NC(=O)[C@H](CCCNC(=N)N)NC(=O)[C@H](Cc2c[nH]cn2)NC(=O)[C@H](CCC(=O)O)NC(=O)CNC(=O)[C@H](Cc2c[nH]c3ccccc23)NC(=O)[C@H](CC(=O)O)NC(=O)[C@H](CCC(N)=O)NC(=O)[C@H](Cc2cn(C)c3ccccc23)NC1=O
B9: Compound 61 (peptide)
peptide: Ac-FCI[Trp(1-Me)]QDWGEHRCTGAES-NH2
modifications: disulfide 2-12
SMILES: CC[C@H](C)[C@@H]1NC(=O)[C@@H](NC(=O)[C@H](Cc2ccccc2)NC(C)=O)CSSC[C@@H](C(=O)N[C@H](C(=O)NCC(=O)N[C@@H](C)C(=O)N[C@@H](CCC(=O)O)C(=O)N[C@@H](CO)C(N)=O)[C@@H](C)O)NC(=O)[C@H](CCCNC(=N)N)NC(=O)[C@H](Cc2c[nH]cn2)NC(=O)[C@H](CCC(=O)O)NC(=O)CNC(=O)[C@H](Cc2c[nH]c3ccccc23)NC(=O)[C@H](CC(=O)O)NC(=O)[C@H](CCC(N)=O)NC(=O)[C@H](Cc2cn(C)c3ccccc23)NC1=O
B10: Compound 63 (peptide)
peptide: Ac-FCI[1Nal]QDWGEHRCTGAES-NH2
modifications: disulfide 2-12
SMILES: CC[C@H](C)[C@@H]1NC(=O)[C@@H](NC(=O)[C@H](Cc2ccccc2)NC(C)=O)CSSC[C@@H](C(=O)N[C@H](C(=O)NCC(=O)N[C@@H](C)C(=O)N[C@@H](CCC(=O)O)C(=O)N[C@@H](CO)C(N)=O)[C@@H](C)O)NC(=O)[C@H](CCCNC(=N)N)NC(=O)[C@H](Cc2c[nH]cn2)NC(=O)[C@H](CCC(=O)O)NC(=O)CNC(=O)[C@H](Cc2c[nH]c3ccccc23)NC(=O)[C@H](CC(=O)O)NC(=O)[C@H](CCC(N)=O)NC(=O)[C@H](Cc2cccc3ccccc23)NC1=O
B11: Compound 43 (peptide)
peptide: Ac-FCIWQDWGEHRCTGAE-NH2
modifications: disulfide 2-12
SMILES: CC[C@H](C)[C@@H]1NC(=O)[C@@H](NC(=O)[C@H](Cc2ccccc2)NC(C)=O)CSSC[C@@H](C(=O)N[C@H](C(=O)NCC(=O)N[C@@H](C)C(=O)N[C@@H](CCC(=O)O)C(N)=O)[C@@H](C)O)NC(=O)[C@H](CCCNC(=N)N)NC(=O)[C@H](Cc2c[nH]cn2)NC(=O)[C@H](CCC(=O)O)NC(=O)CNC(=O)[C@H](Cc2c[nH]c3ccccc23)NC(=O)[C@H](CC(=O)O)NC(=O)[C@H](CCC(N)=O)NC(=O)[C@H](Cc2c[nH]c3ccccc23)NC1=O

Each binder was assayed against T1, Human C3 (human, UniProt P01024 23-1663) (assay: cell-based or functional assay).
T1 sequence (P01024 23-1663 limits assumed): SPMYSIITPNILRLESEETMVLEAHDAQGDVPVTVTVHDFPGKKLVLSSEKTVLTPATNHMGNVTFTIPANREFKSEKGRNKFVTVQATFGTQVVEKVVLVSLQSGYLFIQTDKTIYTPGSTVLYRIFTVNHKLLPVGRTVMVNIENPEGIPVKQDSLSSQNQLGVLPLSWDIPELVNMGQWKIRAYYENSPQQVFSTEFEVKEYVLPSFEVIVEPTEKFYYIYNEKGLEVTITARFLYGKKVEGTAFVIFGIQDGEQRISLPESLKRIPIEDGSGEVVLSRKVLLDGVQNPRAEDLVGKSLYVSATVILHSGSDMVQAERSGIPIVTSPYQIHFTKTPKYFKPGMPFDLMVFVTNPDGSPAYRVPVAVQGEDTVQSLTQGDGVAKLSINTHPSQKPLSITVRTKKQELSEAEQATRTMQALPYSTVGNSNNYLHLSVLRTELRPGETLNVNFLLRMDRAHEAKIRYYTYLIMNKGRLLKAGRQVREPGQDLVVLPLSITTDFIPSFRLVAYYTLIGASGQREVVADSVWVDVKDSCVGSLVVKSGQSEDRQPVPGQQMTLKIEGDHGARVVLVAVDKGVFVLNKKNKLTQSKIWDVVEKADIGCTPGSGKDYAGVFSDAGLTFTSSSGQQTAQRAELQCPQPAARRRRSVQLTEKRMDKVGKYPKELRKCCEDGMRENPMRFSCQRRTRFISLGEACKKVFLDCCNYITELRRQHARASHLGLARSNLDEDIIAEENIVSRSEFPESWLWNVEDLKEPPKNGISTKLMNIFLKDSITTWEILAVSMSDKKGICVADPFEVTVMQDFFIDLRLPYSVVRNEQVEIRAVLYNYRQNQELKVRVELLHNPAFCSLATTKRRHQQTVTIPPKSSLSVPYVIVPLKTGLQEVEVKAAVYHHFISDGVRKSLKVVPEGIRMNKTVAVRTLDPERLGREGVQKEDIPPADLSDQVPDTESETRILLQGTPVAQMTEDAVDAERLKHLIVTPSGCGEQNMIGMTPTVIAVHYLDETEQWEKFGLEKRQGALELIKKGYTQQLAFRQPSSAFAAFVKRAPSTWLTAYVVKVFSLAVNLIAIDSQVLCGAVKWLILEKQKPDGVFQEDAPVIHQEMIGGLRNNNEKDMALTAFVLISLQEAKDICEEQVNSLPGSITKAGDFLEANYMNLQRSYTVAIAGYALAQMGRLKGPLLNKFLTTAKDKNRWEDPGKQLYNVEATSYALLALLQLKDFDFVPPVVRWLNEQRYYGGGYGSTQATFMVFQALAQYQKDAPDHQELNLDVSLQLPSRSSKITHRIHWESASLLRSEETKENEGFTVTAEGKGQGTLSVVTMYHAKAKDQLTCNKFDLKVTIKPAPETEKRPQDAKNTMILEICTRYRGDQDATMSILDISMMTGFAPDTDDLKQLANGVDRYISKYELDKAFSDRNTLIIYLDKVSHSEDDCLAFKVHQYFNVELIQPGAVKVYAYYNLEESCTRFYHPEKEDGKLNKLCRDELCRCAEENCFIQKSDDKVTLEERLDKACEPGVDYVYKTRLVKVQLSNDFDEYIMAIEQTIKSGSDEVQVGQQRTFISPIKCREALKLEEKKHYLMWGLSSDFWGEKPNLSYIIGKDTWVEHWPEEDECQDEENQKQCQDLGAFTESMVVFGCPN
B1 was tested, and the “IC50[nM], inhibition of hemolysis” value was under 100 nM. For B2, the “IC50[nM], inhibition of hemolysis” value was under 100 nM. With B3 the “IC50[nM], inhibition of hemolysis” value was under 100 nM. In the case of B4, the “IC50[nM], inhibition of hemolysis” value is reported as under 100 nM. In the case of B5, the “IC50[nM], inhibition of hemolysis” value is reported as under 100 nM. In the case of B6, the “IC50[nM], inhibition of hemolysis” value is reported as under 100 nM. B7 was tested, and the “IC50[nM], inhibition of hemolysis” value was under 100 nM. In the case of B8, the “IC50[nM], inhibition of hemolysis” value is reported as under 100 nM. For B9, the “IC50[nM], inhibition of hemolysis” value was under 100 nM. For B10, the “IC50[nM], inhibition of hemolysis” value was under 100 nM. For B11, the “IC50[nM], inhibition of hemolysis” value was under 100 nM.

The binders below were run against T1, Human C3 (assay: SPR, C3 immobilised).
Description: Surface plasmon resonance (SPR) was used to characterize peptides with respect to their binding affinity (Kd) for C3. Human C3 (Complement tech cat #A1 13c) was immobilised on individual flow cells of CM5 sensor chips (GE Healthcare) using standard amine coupling to a density of approximately 3000 resonance units (RU) in a buffer consisting of 10 mM phosphate pH 7.4, 150 mM NaCl, 0.05% Tween20.
For interaction experiments a multi-cycle experiment approach was used and performed using either a Biacore™ T200 or Biacore™ X100 instrument (GE Healthcare) at 25° C. Peptides were injected in increasing concentration series (5-8 different concentrations) for 60-120 s at a flow rate of 30 μL/min in a buffer consisting of 10 mM Tris buffer at pH 7.4, with 150 mM NaCl and 0.05% Tween20. This was followed by a dissociation period for up to 10 min. The C3 surface was regenerated between runs by a 45 s injection of 3 M MgCl₂.
Sensorgrams were double-referenced (reference surface, blanks) prior to analysis of the kinetic profiles by globally fitting data to a 1:1 Langmuir binding model to obtain association and dissociation rates for calculation of the equilibrium dissociation constant Kd. Each peptide was tested at in at least 2 independent experiments.
With B1 the Kd was 3.2 nM. Work on B2 yielded a Kd of 9.7 nM. For B3, the Kd was 2.6 nM. In the case of B4, the Kd is reported as 0.3 nM. B5 was tested, and the Kd was 2.8 nM. B6 showed a Kd of 21 nM. B7 showed a Kd of 13 nM. B8 was tested, and the Kd was 1.3 nM. B9 was tested, and the Kd was 0.33 nM. B10 was tested, and the Kd was 4.3 nM. Work on B11 yielded a Kd of 3.3 nM.

Reference: patent US20220306695A1, “COMPSTATIN ANALOGUES AND THEIR MEDICAL USES” (priority 2019, published 2022)
